Data reported in article PMC4960556.

Molecular target: prostate-specific membrane antigen (PSMA) (UniProt Q04609)
Assay: confocal microscopy on cells (binding and internalization)
Conditions: 2'-F pyrimidines (stated for PSEP; implied), Flow binding: 50 nM Cy3-RNA on trypsinized, PBS-washed cells, 300 ug/ml yeast tRNA, 30 min, 37 C, internalization: 100 nM in RPMI 1640 + 5% FBS

Sequence of UniProt Q04609 (Q04609 whole entry): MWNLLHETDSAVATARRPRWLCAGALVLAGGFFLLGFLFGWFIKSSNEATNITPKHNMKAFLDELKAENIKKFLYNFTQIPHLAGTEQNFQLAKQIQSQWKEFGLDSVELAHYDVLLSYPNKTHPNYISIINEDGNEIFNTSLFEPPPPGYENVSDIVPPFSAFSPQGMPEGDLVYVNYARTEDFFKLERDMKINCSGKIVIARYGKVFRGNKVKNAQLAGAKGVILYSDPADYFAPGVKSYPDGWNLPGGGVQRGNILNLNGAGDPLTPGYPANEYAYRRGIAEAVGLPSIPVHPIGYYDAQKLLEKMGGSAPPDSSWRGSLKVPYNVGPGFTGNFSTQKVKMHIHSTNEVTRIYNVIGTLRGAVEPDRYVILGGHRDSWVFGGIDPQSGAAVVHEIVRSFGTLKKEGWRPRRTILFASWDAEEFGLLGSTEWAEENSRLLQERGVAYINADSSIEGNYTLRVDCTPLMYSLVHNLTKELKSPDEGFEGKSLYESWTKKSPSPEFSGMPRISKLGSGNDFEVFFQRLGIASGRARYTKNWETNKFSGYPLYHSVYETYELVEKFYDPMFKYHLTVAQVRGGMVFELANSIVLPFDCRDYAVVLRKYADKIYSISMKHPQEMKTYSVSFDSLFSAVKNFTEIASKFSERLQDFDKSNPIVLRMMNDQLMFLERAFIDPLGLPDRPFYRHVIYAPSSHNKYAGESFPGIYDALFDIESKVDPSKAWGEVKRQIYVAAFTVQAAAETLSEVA

Sequence: GGGAGGACGAUGCGGAUCAGCCAUGUUUACGUCACUCCUAAAAUGUAGAGAUGCGGUGGUCCUU / GGAUCCCGACUGGCGAGAGCCAGGUAACGAAUGGAUCCAAAAACCUUAGCAGUCUUAUCUAAUUUUGGACCACCGCAUCUCUACAUU / UUAGAUAAGACUGCUAAGGCA [PSEM (monovalent: one PSMA aptamer, one MG aptamer)]
- binding signal (fraction of PSEP fluorescence): 0.5
